Source: patent US20240383984A1 (Genentech, published 2024)
Residue numbers refer to the chain shown, from its start. Blank lines part the entries; values can stand above or below the binder they belong to.

What was measured:
[1] = biological target: T1, human FcRH5 protein fragment (soluble) (human, UniProt Q96RD9 16-851); experiment: SPR (BIACORE), TDB captured as ligand, Hu FcRH5 as analyte, 25 °C, 1:1 binding model
T1 construct: whole entry named; also called soluble human FcRH5; Human FcRH5 (BIACORE analyte)
T1 sequence: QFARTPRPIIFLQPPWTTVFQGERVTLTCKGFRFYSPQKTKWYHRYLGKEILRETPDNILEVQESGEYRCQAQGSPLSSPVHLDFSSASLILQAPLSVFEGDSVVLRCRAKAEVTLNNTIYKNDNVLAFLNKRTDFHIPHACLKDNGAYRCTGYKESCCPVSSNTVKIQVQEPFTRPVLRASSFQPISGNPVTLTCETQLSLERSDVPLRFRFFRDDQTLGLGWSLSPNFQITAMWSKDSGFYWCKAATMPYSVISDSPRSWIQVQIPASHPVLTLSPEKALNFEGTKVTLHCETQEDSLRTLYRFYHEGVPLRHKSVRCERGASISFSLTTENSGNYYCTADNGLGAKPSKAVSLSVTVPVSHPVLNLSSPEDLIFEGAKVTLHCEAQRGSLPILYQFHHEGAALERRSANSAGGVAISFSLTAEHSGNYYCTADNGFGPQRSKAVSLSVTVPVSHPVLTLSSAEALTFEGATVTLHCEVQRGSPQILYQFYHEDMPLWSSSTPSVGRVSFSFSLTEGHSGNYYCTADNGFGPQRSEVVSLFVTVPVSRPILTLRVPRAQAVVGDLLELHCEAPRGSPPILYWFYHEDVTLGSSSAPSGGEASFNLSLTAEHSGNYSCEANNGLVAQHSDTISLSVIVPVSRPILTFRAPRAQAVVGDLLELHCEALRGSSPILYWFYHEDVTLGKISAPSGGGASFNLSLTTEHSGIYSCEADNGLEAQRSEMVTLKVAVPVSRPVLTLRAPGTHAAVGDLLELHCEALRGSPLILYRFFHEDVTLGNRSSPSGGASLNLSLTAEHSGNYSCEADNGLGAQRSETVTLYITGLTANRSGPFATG

[2] = biological target: T1, human FcRH5 protein fragment (soluble); experiment: BIACORE, hIgG capture, 1:1 model, monovalent
Description: (§1) Briefly, a human IgG capture surface was generated on a Series S CM5 chip using amine coupling and the human IgG capture kit (GE Life Sciences, Piscataway, NJ). Test antibodies were then captured on flow cells 2, 3, or 4, with flow cell 1 used as a reference. An FcRH5 protein fragment was used as the analyte, with a flow rate of […]. Between injections the capture surface was regenerated by a 30-second injection of 3M magnesium chloride or 10 mM glycine, pH 1.5. Interactions were assessed at 25° C. in 10 mM HEPES pH7.4, 150 mM NaCl, and 0.05% Tween 20 (HBSP). Reference data from the reference flow cell and from injection of buffer alone were subtracted prior to kinetic analysis. Kinetic information was calculated by fitting data to a 1:1 binding model. Reference subtraction and data fitting were performed using BIAevaluation software (GE Life Sciences, Piscataway, NJ).
(§2) Kinetic characterization experiments were carried out (see Table 8). In these experiments, binding of soluble FcRH5 protein fragment to purified antibodies in human TDB antibody format was analyzed at six different non-zero concentrations (a 1:3 dilution series, one concentration injected twice as a replicate). Flow rate was set at 40 μl/min and association and dissociation monitored for 600 s.

[3] = biological target: T2, cynomolgus FcRH5 protein fragment (soluble) (cynomolgus monkey); experiment: BIACORE, hIgG capture, 1:1 model, monovalent
T2 construct: whole entry named; also called Cyno FcRH5 (BIACORE analyte)
T2 chain: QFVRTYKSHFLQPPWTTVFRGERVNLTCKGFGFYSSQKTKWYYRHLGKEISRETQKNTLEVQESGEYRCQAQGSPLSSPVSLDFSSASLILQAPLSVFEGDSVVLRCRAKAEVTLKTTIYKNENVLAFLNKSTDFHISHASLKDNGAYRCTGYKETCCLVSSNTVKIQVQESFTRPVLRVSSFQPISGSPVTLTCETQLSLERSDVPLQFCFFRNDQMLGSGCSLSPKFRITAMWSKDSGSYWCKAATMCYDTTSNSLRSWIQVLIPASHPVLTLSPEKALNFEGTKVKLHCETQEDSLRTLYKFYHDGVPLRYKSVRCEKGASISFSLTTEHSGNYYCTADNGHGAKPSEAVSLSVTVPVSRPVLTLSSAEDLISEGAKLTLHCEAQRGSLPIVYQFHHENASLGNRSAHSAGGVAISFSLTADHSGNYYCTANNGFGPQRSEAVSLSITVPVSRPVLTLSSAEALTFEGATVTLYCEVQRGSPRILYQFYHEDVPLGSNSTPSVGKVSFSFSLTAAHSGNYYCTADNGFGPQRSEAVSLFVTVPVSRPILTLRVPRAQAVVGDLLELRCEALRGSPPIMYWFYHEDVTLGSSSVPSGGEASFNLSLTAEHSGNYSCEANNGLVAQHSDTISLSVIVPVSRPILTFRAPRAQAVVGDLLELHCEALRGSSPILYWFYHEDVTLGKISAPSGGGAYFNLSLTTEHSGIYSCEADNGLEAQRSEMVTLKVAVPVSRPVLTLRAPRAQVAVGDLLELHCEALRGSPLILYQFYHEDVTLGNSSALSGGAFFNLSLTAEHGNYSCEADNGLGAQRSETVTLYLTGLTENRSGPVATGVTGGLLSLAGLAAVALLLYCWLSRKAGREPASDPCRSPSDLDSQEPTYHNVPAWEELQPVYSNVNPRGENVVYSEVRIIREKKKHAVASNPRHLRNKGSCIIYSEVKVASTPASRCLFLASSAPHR
Description: as §1, §2

[4] = biological target: T2, cynomolgus FcRH5 protein fragment …; experiment: SPR (BIACORE), hIgG capture format, 1:1 binding model, monovalent affinity; same numbers as FIG. 10B, Cyno FcRH5 panel
Description: as §2

- Kd [1]: 2.41 nM
- koff [1]: 0.00117 s⁻¹
- kon [1]: 484000 M⁻¹ s⁻¹
B1: hu1G7.v1.4/38E4.v1 TDB (bispecific antibody, V domains shown)
VH 1: EVQLVESGPGLVKPSETLSLTCTVSGFSLTRFGVHWVRQPPGKGLEWLGVIWRGGSTDYNAAFMSRLTISKDNSKNQVSLKLSSVTAADTAVYYCSNHYYGSSDYALDNWGQGTLVTVSS
VL 1: DIQMTQSPSSLSASVGDRVTITCKASQDVRNLVVWFQQKPGKAPKLLIYSGSYRYSGVPSRFSGSGSGTDFTLTISSLQPEDFATYYCQQHYSPPYTFGQGTKVEIK
VH 2: EVQLVQSGAEVKKPGASVKVSCKASGFTFTSYYIHWVRQAPGQGLEWIGWIYPENDNTKYNEKFKDRVTITADTSTSTAYLELSSLRSEDTAVYYCARDGYSRYYFDYWGQGTLVTVSS
VL 2: DIVMTQSPDSLAVSLGERATINCKSSQSLLNSRTRKNYLAWYQQKPGQSPKLLIYWTSTRKSGVPDRFSGSGSGTDFTLTISSLQAEDVAVYYCKQSFILRTFGQGTKVEIK
notes: knob-into-hole TDB; also called 1G7.v1.4 TDB; 1G7.v1.4 (TDB format)

- Kd [2]: 2.35 nM
- Kd [3]: 6.76 nM
- Kd [4]: 6.76 nM
- koff [4]: 0.000847 s⁻¹
- kon [4]: 125000 M⁻¹ s⁻¹
B2: 1G7.v85/38E4.v1 TDB (bispecific antibody, V domains shown)
VH 1: B1 VH 1 with M64V
VL 1: B1 VL 1
VH 2: B1 VH 2
VL 2: B1 VL 2
notes: knob-into-hole TDB; also called 1G7.v85 TDB; 1G7.v85 (TDB format)
